Broadly, the Km is the substrate concentration at which the rate is half of its maximum. What is called kcat is the number of substrate molecules converted per active site and unit of time at saturation.

The text below walks through data of PMC11796402, “Overcoming barriers for investigating nickel-pincer nucleotide cofactor-related enzymes” (mBio, 2024).

Substrate in data set [1]: C[C@@H](O)C(=O)O
The experiment in a line: purified protein. As to conditions: PBS pH 7.4, 35°C, 2.13 µM enzyme, racemization to L-lactate. It counts as biochemical, Lactiplantibacillus plantarum.

Substrate in data set [2]: C[C@H](O)C(=O)O
The experiment in a line: purified protein. In kind it is biochemical, Lactiplantibacillus plantarum. As to conditions: PBS pH 7.4, 35°C, 2.13 µM enzyme, racemization to D-lactate.

B1: LarALp (Lactiplantibacillus plantarum WCFS1) (protein)
chain: VAIDLPYDKRTITAQIDDENYAGKLVSQAATYHNKLSEQETVEKSLDNPIGSDKLEELARGKHNIVIISSDHTRPVPSHIITPILLRRLRSVAPDARIRILVATGFHRPSTHEELVNKYGEDIVNNEEIVMHVSTDDSSMVKIGQLPSGGDCIINKVAAEADLLISEGFIESHFFAGFSGGRKSVLPGIASYKTIMANHSGEFINSPKARTGNLMHNSIHKDMVYAARTAKLAFIINVVLDEDKKIIGSFAGDMEAAHKVGCDFVKELSSVPAIDCDIAISTNGGYPLDQNIYQAVKGMTAAEATNKEGGTIIMVAGARDGHGGEGFYHNLADVDDPKEFLDQAINTPRLKTIPDQWTAQIFARILVHHHVIFVSDLVDPDLITNMHMELAKTLDEAMEKAYAREGQAAKVTVIPDGLGVIVK
notes: co-expressed with L. plantarum LarB, LarC, LarE in E. coli BL21(DE3) (Duet, pAT035/pAT038)
As to B1, in the data set “purified protein [1]”, the Km was determined as 23 ± 12 mM and the kcat is 185 ± 12 s⁻¹. Also, in “purified protein [2]”, the Michaelis-Menten constant (Km) is on record as 32 ± 10 mM and the kcat was determined as 179 ± 25 s⁻¹.
